Assay results reported in US20150218578.

System: T1, OsMYB55 (Oryza sativa)
T1 sequence: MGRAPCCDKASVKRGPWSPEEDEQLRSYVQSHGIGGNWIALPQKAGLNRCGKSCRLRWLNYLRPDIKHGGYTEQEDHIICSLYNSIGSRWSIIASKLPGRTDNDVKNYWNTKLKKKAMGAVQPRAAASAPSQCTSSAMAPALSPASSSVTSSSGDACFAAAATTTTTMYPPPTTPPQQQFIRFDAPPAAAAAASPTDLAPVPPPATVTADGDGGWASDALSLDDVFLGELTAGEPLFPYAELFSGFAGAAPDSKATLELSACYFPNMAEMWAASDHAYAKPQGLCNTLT
Experiment: cell_activity
Settings: GUS transactivation in tobacco leaf vs empty vector; almost eight-fold

Substance | activity [fold]
OsGAD3 promoter 1.5-2 kb (GUS reporter) | 8
OsGAT1 promoter 1.5-2 kb (GUS reporter) | 8
OsGS1;2 promoter 1.5-2 kb (GUS reporter) | 8
